{"source": "patent US20160287696A1", "about": "“PAN POLLEN IMMUNOGENS AND METHODS AND USES FOR IMMUNE RESPONSE MODULATION” (LA JOLLA INSTITUTE FOR ALLERGY AND IMMUNOLOGY, priority 2013, published 2016)", "molecules": {"B1": {"name": "NTGA 2: Phl p wild type sequence, Table 2 (protein)", "chain": "MASPALISDTDQWKALQAHVGAIHKTHLRDLMADADRCKALTAEFEGVFLDYSRQQATTETVDKLFKLAEAAKLKEKIAKMFNGDKINSTENRSVLHVALRAPRDAVINSDGVNVVPEVWAVIDKIKQFSETFRSGSWVGATGKPLTNVVSVGIGGSFLGPLFVHTALQTDPEAAESAKGRQLRFLANVDPVDVARSIKDLDPETTLVVVVSKTFTTAETMLNARTIKEWIVSSLGPQAVSKHMIAVSTNLKLVKEFGIDPNNAFAFWDWVGGRYSVCSAVGVLPLSLQYGFPIVQRFLEGASSIDNHFRTASFEKNIPVLLGLLSVWNVSFLGYPARAILPYSQALEKLAPHIQQLSMESNGKGVSIDGVPLPYEAGEIDFGEPGTNGQHSFYQLIHQGRVIPCDFIGVIKSQQPVYLKGETSNHDELMSNFFAQPDALASRKTPAPLRSENVSENLIPHKTFKGNRPSLSFLLSSLSAYEIGQLLAIYEHRIAVQGFIWGINSFDQWGVELGKSLASQVRKQLHASRMEGKPVEGFNPSSASLLARYLAVEPSTPYDTTVLPKV", "modifications": "Phleum Pratense"}, "B2": {"name": "NTGA 24: Phl p wild type sequence, Table 2 (protein)", "chain": "MATKRSVGTLGEADLKGKKVFLRADLNVPLDDAQKITDDTRIRASIPTIKFLLEKGAKVILASHLGRPKGVTPKFSLKPLVPRLSELLGVEVVMANDCIGEEVEKLAAALPEGGVLLLENVRFYKEEEKNDPEFAKKLASVADLYVNDAFGTAHRAHASTEGVTKFLRPSVAGFLMQKELDYLVGAVANPKKPFAAIVGGSKVSSKIGVIESLLAKVDILILGGGMIFTFYKAQGKAVGKSLVEEDKLELATSLIETAKAKGVSLLLPTDVVVADKFAPDAESKTVSADAIPDGWMGLDVGPDSIKTFSEALDTTKTVIWNGPMGVFEFEKFAAGTDAIAKQLADLTGKGVTTIIGGGDSVAAVEKAGLADKMSHISTGGGASLELLEGKPLPGVLALDEA", "modifications": "Phleum Pratense"}, "B3": {"name": "NTGA 1: Phl p (Timothy grass pollen) wild type sequence, Table 2 (protein)", "chain": "MAATIQSVKARQIFDSRGNPTVEVDVCCSDGTFARAAVPSGASTGVYEALELRDGGSDYLGKGVLKAVDNVNSIIGPALIGKDPTEQTELDNFMVHQLDGTKNEWGWCKQKLGANAILAVSLAVCKAGALVKKIPLYQHIANLAGNKQLVLPVPAFNVINGGSHAGNKLAMQEFMILPTGASSFKEAMKMGVEVYHNLKSVIKKKYGQDATNVGDEGGFAPNIQENKEGLELLKTAIEKAGYTGKVVIGMDVAASEFYGEKDQTYDLNFKEENNDGSQKISGDSLKNVYKSFVSEYPIVSIEDPFDQDDWVHYAKMTEEIGEQVQIVGDDLLVTNPTRVAKAIAEKSCNALLLKVNQIGSVTESIEAVKMSKRAGWGVMTSHRSGETEDTFIADLAVGLSTGQIKTGAPCRSERLAKYNQLLRIEEELGAAAVYAGLKFRAPVEPY", "modifications": "Phleum Pratense"}, "B4": {"name": "NTGA 7: Phl p wild type sequence, Table 2 (protein)", "chain": "MAFEKIKVANPIVEMGDEMTRVFWQSIKEKLIFPFLDLDIKYYDLGVLHRDATDDKVTVEAAEATLKYNVAIKCATITPDEDRVKEFNLKQMWRSPNGTIRNIINGTVFREPIICKNVPKLVPGWTKPICIGRHAFGDQYRATDAVLKGPGKLRLVFEGKDETVDLEVFNFTGAGGVALAMYNTDESIQGFAEASMAIAYEKKWPLYLSTKNTILKKYDGRFKDIFQAVYEADWKSKYEAAGIWYEHRLIDDMVAYALKSEGGYVWACKNYDGDVQSDFLAQGFGSLGLMTSVLMCPDGKTIEAEAAHGTVTRHFRVHQKGGETSTNSIASIFAWTRGLAHRAKLDDNARLLDFTQKLEDACVGTVESGKMTKDLALLVHGSSKVTRGDYLNTEEFIDAVAAELQSRLAAN", "modifications": "Phleum Pratense"}, "B5": {"name": "NTGA 53: Phl p wild type sequence, Table 2 (protein)", "chain": "MDRNPVAKNAGKFMTLAGVLDYAKASNISGILIGIEHAAYLATRGLDVVDAVSNALIKSGYDKETKQQVFIQSEDPPVLSAFKKFPKFNRVFEIEFDIRDVSKPSVVEIKEFANAVKLRRSSAAQVDGFYLTGFNAVVERLRDADIQVHVGVLKNEFMSLAFDYWADPMVEIATDTWSVLADGLVTEFPSTAAAYFRSPCSDIKRNMSYTIKPGEPGALVDMAAYGALPPAPPPAPVLEPADVHRQPLPLCPTEPMFRTFRCRLPPKETGKNAEYTANLAADG", "modifications": "Phleum Pratense"}, "B6": {"name": "NTGA 89: Phl p wild type sequence, Table 2 (protein)", "chain": "MSAADKVKPAASPAAEDPAAIAGNISYHAHYSPHFSPLAFGPEPAYFATAESVRDHLLQRWNDTYLHFHKTDPKQTYYLSMEYLQGRALTNAVGNLGITGAYAEAVKKFGYELEALAGQERDMALGNGGLGRLAACFLDSMATLNLPAWGYGLRYRYGLFKQRIAKEGQEEIAEDWLEKFSPWEIVRHDVVYPVRFFGHVEILPDGRRKSAGGEVLNALAYDVPIPGYKTKNAISLRLWDAKASAEDFNLFQFNDGQYESAAQLHSRAQQICAVLYPGDATEEGKLLRLKQQFFLCSASLQDIIFRFKERKSDRVSGKWSEFPSKVAVQMNDTHPTLAIPELMRLLMDEEGLGWDEAWDVTNKTVAYTNHTVLPEALEKWSQSVMRKLLPRQMEIIEEIDKRFREMVISTRKDMEGKLDSMSVLDNSPQKPVVRMANLCVVSAHTVNGVAELHSNILKEELFADYVSIWPKKFQNKTNGITPRRWLRFCNPELSEIVTKWLKTDQWTSNLDLLTGLRKFADDEKLHAEWAAAKLASKKRLAKHVLDATGVTIDPTSLFDIQIKRIHEYKRQLMNILGAVYRYKKLKEMSAEEKQKVTPRTVMVGGKAFATYTNAKRIVKLVNDVGAVVNNDPDVNKYLKVVFIPNYNVSVAEVLIPGSELSQHISTAGMEASGTSNMKFSLNGCVIIGTLDGANVEIREEVGEDNFFLFGAKADQVAGLRKDRENGLFKPDPRFEEAKQYIRSGTFGTYDYTPLLDSLEGNSGFGRGDYFLVGYDFPSYIDAQARVDEAYKDKKRWIKMSILNTAGSGKFSSDRTIDQYAKEIWGITANPVP", "modifications": "Phleum Pratense"}, "B7": {"name": "NTGA 27: Phl p wild type sequence, Table 2 (protein)", "chain": "MSAYCGKYKDELIKNAAYIGTPGKGILAADESTGTIGKRFASINVENVEDNRRALRELLFTTPGALQHISGVILFEETLYQSSKAGKPFVDILKENNVLPGIKVDKGTVELAGTDKETTTQGHDDLGKRCAKYYEAGARFAKWRAVLKIGPNEPSQLSIDQNAQGLARYAIICQENGLVPIVEPEILVDGPHDIERCAYVTEVVLAACYKALNDQHVLLEGSLLKPNMVTPGSDAKKVAPEVIAEYTVRTLQRTVPPAVPAIVFLSGGQSEEEATVNLNAMNKLQTKKPWFLSFSFGRALQQSTLKAWSGKEENVEKAQKAFLVRCKANSEATLGTYKGDATLGEGASESLHVKDYKY", "modifications": "Phleum Pratense"}}, "test_system": "cultured PBMCs of the allergic donors", "test": "ELISPOT of IL-5 or IFNg production by cultured PBMCs of TG allergic donors in response to peptide", "format": "cell-based, human", "settings": "for NTGA's containing at least one T cell epitope, Th+ (Col 2): NTGA number given = criterion met, TG allergic donors n=20; for No of PG+ & th+ peptides per NTGA / No of PP & Th+ peptides per NTGA: Table 6; for No of PG+ & th+ peptides per NTGA: PG+ peptides recognized by T cells of grass allergic donors (n=20); for No of PP & Th+ peptides per NTGA: PP peptides recognized by T cells of grass allergic donors (n=20); for # Th+: Table 7, peptides per NTGA recognized by T cells of grass allergic donors (n=20); for T cell reactivity of sequences contained in the protein: among top pan-pollen NTGA's ranked by number of PP peptides; for PG+ peptides recognized by grass allergic donors: n=20 grass allergic donors, PG+ peptides of the NTGA", "from_the_text": "Table 1 indicates for each of the 397 PG+ peptides in which non-grass pollen species a matching peptide with either less than 3, less than 2 or zero mismatches are found. The number of TG grass allergic donors (n=20) with an in vitro T cell response to the TG peptide sequence is also shown.\nA set of 93 proteins from Timothy grass (TG) pollen and the assembly of 822 peptides (15 mers) predicted to promiscuously bind HLA class II molecules shown in Table 9 and the immune reactivity in allergic donors have been reported in PCT application WO 2013/119863. […] Immune reactivity was determined by the production of IL-5 or IFNg from cultured PBMCs of the allergic donors in response to stimulation with a peptide and IL-5 and IFNg were measured by ELISPOT as described in Oseroff C et al, 2010.\nIn short, T cell immune reactivity was determined using PBMCs isolated from study participants and stored in liquid nitrogen until further use. For experimental testing, PBMCs were thawed and expanded in vitro with TG pollen extract (50 μg/mL) or the peptide pool ([…]). The TG extract and peptide pools had each been previously titrated to determine optimal stimulation concentrations.\nCytokine production by cultured PBMCs in response to antigen stimulation was measured by ELISPOT. Cells (1×10^5 cells/well) were plated and incubated with peptide (10 μg/mL), the peptide pool (5 μg/mL), or the TG extract (50 μg/mL). Phytohaemagglutinin (10 μg/mL) and medium alone were used as positive and negative controls, respectively. Samples were considered to produce a cytokine if 100 spot-forming cells (SFCs)/10^6 PBMCs were detected, with P .05 and a stimulation index of 2 or more. Criteria for individual peptides were the same except that a minimum of 20 SFCs were required for a sample to be counted as positive.\nTable 3 lists the 397 PG+ peptides and indicates for each non-grass pollen species whether a matching peptide with either less than 3, less than 2 or zero mismatches could be detected. The immune reactivity of the TG peptide was assessed as the number of TG grass allergic donors (n=20) having in vitro T cell response against the TG peptide."}
{"molecule": "B1", "values": [{"measurement": "immune reactivity (SFC counts in ELISPOT) of highly conserved PG+ peptides derived from the NTGA", "result": "high immune reactivity"}, {"measurement": "NTGA's containing at least one T cell epitope, Th+ (Col 2)", "result": 2}, {"measurement": "No of PG+ & th+ peptides per NTGA", "result": 15}, {"measurement": "No of PP & Th+ peptides per NTGA", "result": 12}, {"measurement": "# Th+", "result": 5}, {"measurement": "T cell reactivity of sequences contained in the protein", "result": "highly T cell reactive sequences"}, {"measurement": "PG+ peptides recognized by grass allergic donors", "result": "two"}]}
{"molecule": "B2", "values": [{"measurement": "immune reactivity (SFC counts in ELISPOT) of highly conserved PG+ peptides derived from the NTGA", "result": "high immune reactivity"}, {"measurement": "NTGA's containing at least one T cell epitope, Th+ (Col 2)", "result": 24}, {"measurement": "No of PG+ & th+ peptides per NTGA", "result": 11}, {"measurement": "No of PP & Th+ peptides per NTGA", "result": 8}, {"measurement": "# Th+", "result": 2}, {"measurement": "PG+ peptides recognized by grass allergic donors", "result": "two"}]}
{"molecule": "B3", "values": [{"measurement": "NTGA's containing at least one T cell epitope, Th+ (Col 2)", "result": 1}, {"measurement": "No of PG+ & th+ peptides per NTGA", "result": 5}, {"measurement": "No of PP & Th+ peptides per NTGA", "result": 4}, {"measurement": "# Th+", "result": 0}]}
{"molecule": "B4", "values": [{"measurement": "immune reactivity (SFC counts in ELISPOT) of highly conserved PG+ peptides derived from the NTGA", "result": "high immune reactivity"}, {"measurement": "NTGA's containing at least one T cell epitope, Th+ (Col 2)", "result": 7}, {"measurement": "No of PG+ & th+ peptides per NTGA", "result": 9}, {"measurement": "No of PP & Th+ peptides per NTGA", "result": 6}, {"measurement": "# Th+", "result": 4}, {"measurement": "T cell reactivity of sequences contained in the protein", "result": "highly T cell reactive sequences"}, {"measurement": "PG+ peptides recognized by grass allergic donors", "result": "two"}]}
{"molecule": "B5", "values": [{"measurement": "NTGA's containing at least one T cell epitope, Th+ (Col 2)", "result": 53}, {"measurement": "No of PG+ & th+ peptides per NTGA", "result": 3}, {"measurement": "No of PP & Th+ peptides per NTGA", "result": 1}, {"measurement": "# Th+", "result": 3}, {"measurement": "T cell reactivity of sequences contained in the protein", "result": "highly T cell reactive sequences"}]}
{"molecule": "B6", "values": [{"measurement": "NTGA's containing at least one T cell epitope, Th+ (Col 2)", "result": 89}, {"measurement": "No of PG+ & th+ peptides per NTGA", "result": 13}, {"measurement": "No of PP & Th+ peptides per NTGA", "result": 0}, {"measurement": "# Th+", "result": 4}, {"measurement": "PG+ peptides recognized by grass allergic donors", "result": "two"}]}
{"molecule": "B7", "values": [{"measurement": "immune reactivity (SFC counts in ELISPOT) of highly conserved PG+ peptides derived from the NTGA", "result": "high immune reactivity"}, {"measurement": "NTGA's containing at least one T cell epitope, Th+ (Col 2)", "result": 27}, {"measurement": "No of PG+ & th+ peptides per NTGA", "result": 5}, {"measurement": "No of PP & Th+ peptides per NTGA", "result": 4}, {"measurement": "# Th+", "result": 0}]}
